Experimental findings from publication PMC4635490, “VP22 core domain from Herpes simplex virus 1 reveals a surprising structural conservation in both the Alpha- and Gammaherpesvirinae subfamilies” (The Journal of General Virology, 2015) are described below.

This data set concerns the molecule itself. As to the kind of experiment: SEC-MALS; Superdex 200 5/150 GL, 20 mM HEPES pH 7.5, 300 mM NaCl, 10 % glycerol, 2 mM TCEP; 20 µl of 6 mg/ml VP22core injected, 0.3 ml/min. (In general: Size exclusion chromatography separates by hydrodynamic size, large species first.)

B1: VP22 core domain (conserved C-terminal domain) from Herpes simplex virus 1, residues 174-281 (domain or fragment)
chain: RKLHFSTAPPNPDAPWTPRVAGFNKRVFCAAVGRLAAMHARMAAVQLWDMSRPRTDEDLNELLGITTIRVTVCEGKNLLQRANELVNPDVVQDVDAATATRGRSAASR
notes: VP22 tegument protein of Herpes simplex virus 1 (Human herpesvirus 1), GenBank BAE87004.1, residues 174-281; electron density seen for residues 174-260 plus three amino acids of the N-terminal tag; The tag was not removed: the monomer mass of 14 551 g/mol includes the purification tag and the TEV site; source: bacterial cells, purified (HisTrap HP, Superdex 75 size exclusion); not shown: His6, …
Take B1: the “stoichiometry N” value came to 2.

As usually defined, the stoichiometry N is the number of molecules, sites or subunits per partner or assembly.
